# Laboratory results as given in IntAct's records for PubMed 23932588.
# B1: Tyrosine-protein phosphatase non-receptor type 5 (Mus musculus), P54830-1 (parent)
# chain: MCCSERLLGLPQPVEMEAPDEAEGLPSKQKEMPPPPPPSPPSEPAQKLPPQGAGSHSLTVRSSLCLFAASQFLLACGVLWLSGHGHSWLQNTTDLISSSLTVLNHLGPVAWLGSGTWGIPSLLLVSLTVSLVIVTTLVWHLLKAPPEPPAPLPPEDRRQSVSRQPSFTYSEWMEEKVEDDFLDLDAVPETPVFDCVMDIKPETDPASLTVKSMGLQERRGSNVSLTLDMCTPGCNEEGFGYLVSPREESAHEYLLSASRVLRAEELHEKALDPFLLQAEFFEIPMNFVDPKEYDIPGLVRKNRYKTILPNPHSRVRLTSPDPEDPLSSYINANYIRGYSGEEKVYIATQGPIVSTVADFWRMVWQERTPIIVMITNIEEMNEKCTEYWPEEQVVHDGVEITVQKVIHTEDYRLRLISLRRGTEERSLKHYWFTSWPDQKTPDRAPPLLHLVREVEEAAQQEGPHCSPIIVHCSAGIGRTGCFIATSICCQQLRREGVVDILKTTCQLRQDRGGMIQTCEQYQFVHHAMSLYEKQLSLQSSE
# Variants of: B1
# Conditions: with MAPK14, Q16539-1
# MAPK14, Q16539-1, sequence (Q16539 whole entry): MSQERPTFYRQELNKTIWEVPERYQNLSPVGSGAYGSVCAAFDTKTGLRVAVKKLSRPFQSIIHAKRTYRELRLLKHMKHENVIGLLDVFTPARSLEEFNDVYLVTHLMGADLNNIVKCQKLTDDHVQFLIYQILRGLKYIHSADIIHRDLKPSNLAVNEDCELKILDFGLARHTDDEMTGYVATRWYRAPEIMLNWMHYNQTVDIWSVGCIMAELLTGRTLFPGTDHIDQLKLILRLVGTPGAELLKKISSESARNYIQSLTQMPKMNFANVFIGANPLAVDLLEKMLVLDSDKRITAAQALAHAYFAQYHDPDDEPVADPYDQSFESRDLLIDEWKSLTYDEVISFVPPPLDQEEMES
row,effect of a mutation on the interaction,Variant
1,decreasing interaction strength,F281A;I307A
2,decreasing interaction strength,F274A;F281A
